Measurements reported in patent JPH11332594A (dated 1999).

Molecular target: T1, ヒト可溶性CD4 (human soluble CD4 made in Example 1, C-terminal FLAG-tag, expressed in COS7 cells) (human, UniProt P01730 26-396)
T1 construct: extracellular domain; Purified on anti-FLAG-M2 gel; also called ヒトCD4抗原
Assay: SPR, BIA-core2000; human soluble CD4 amine-coupled to CM5 chip, antibody as analyte (50 μg/ml)

Kd [nM] | koff [s⁻¹] | Binder
0.808 | 5.33e-06 | 4H5抗体 (anti-human CD4 mouse monoclonal antibody from Mouse-Mouse hybridoma 4H5, FERM P-16807) (antibody, V domains shown, Whole mouse monoclonal antibody from the hybridoma; also called 4H5 antibody; 抗ヒトCD4抗体(4H5抗体)) VH: QVQLQQSGPELVKPGASVKMSCKASGYTFTDYVINWLNQRTGQGLEWIGEIYPGSGSAYYNEMFKGKATLTADKSSNTAYMQLSSLTSEDSAVYFCARRGTGTGFAYWGRGTLVTVSA VL: not shown
1.24 | 2.92e-05 | キメラ4H5抗体 (human-mouse chimeric anti-CD4 antibody expressed from plasmid pG14H5 in COS7 cells) (antibody, V domains shown, The human light chain constant region is not specified; also called chimeric 4H5 antibody; ヒトマウスキメラ抗CD4抗体) VH: LQQSGPELVKPGASVKMSCKASGYTFTDYVINWLNQRTGQGLEWIGEIYPGSGSAYYNEMFKGKATLTADKSSNTAYMQLSSLTSEDSAVYFCARRGTGTGFAYWGRGTLVTVSA VL: LTQSPASLAVSLGQRATISCKASQSVDYDGDSYMNWYQQKPGQPPKLLIYAASNLESGIPARFSGSGSGTDFTLNIHPVEEEDAATYYCQQSSEDPPTFGGGTKLEIK
